Experimental data from publication PMC5454392, “Selective BET bromodomain inhibition as an antifungal therapeutic strategy” (Nature Communications, 2017).
Numbered stars: 1 amine (or outer) side, 2 acyl side, 3 side chain; on linkers, the order of the positions; unused ones are H or OH. Square brackets hold non-standard residues; d marks the D form. Ends that are not written are not given here. Arg(Me2a) = CN(C)C(=N)NCCC[C@H](N)C(=O)O; Kac = CC(=O)NCCCC[C@H](N[*:1])C(=O)[*:2]; Lys(Me3) = C[N+](C)(C)CCCC[C@H](N)C(=O)O; Arg(Me2s) = CN=C(NC)NCCC[C@H](N)C(=O)O; pT = C[C@@H](OP(=O)(O)O)[C@H](N)C(=O)O; Lys(Me2) = CN(C)CCCC[C@H](N)C(=O)O; Lys(Me) = CNCCCC[C@H](N)C(=O)O; Me2a = not defined here; me2a = not defined here

Biological target: T1, CaBdf1 BD1 (GST-tagged, wild-type) (Candida albicans (strain SC5314 / ATCC …, UniProt Q5A4W8))
T1 chain: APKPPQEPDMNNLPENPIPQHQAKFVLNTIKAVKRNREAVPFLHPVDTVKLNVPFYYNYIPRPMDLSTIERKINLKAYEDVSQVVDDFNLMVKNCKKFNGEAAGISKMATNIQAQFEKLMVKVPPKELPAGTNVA
Assay: histone peptide array (Active Motif MODified), 1 uM GST-tagged bromodomain, anti-GST detection, normalized mean intensity

Binder	binding score
ARTK(me3)QTAR(me2a)K(me3)STGGKAPRKQ (reading uncertain)	0.00508
ARTKQTARKSTGGKAPRKQ (A R T K Q T A Rme2a Kac S pT G G K A P R K Q)	0.00363
A[Arg(Me2s)]TK(Me)QTARK(Me)STGGKAPRKQ	0.0029
ARTKQTARKSTGGKAPRKQ (A Rme2s T Kme3 Q T A Rme2s Kme1 S T G G K A P R K Q)	0.00363
ARTKQTARKSTGGKAPRKQ (A R T K Q T A R Kme3 S T G G Kac A P R K Q)	0.0225
A[Arg(Me2a)]T[Lys(Me3)]QTA[Arg(Me2a)][Lys(Me2)]STGGKAPRKQ	0.00254
ARTKQTARKSTGGKAPRKQ (A Rme2s T Kme3 Q T A R Kme1 S T G G K A P R K Q)	0.00471
ARTKQTARKSTGGKAPRKQ (A R T Kme3 Q T A Rme2a Kme2 S T G G K A P R K Q)	0.00254
ARTKQTARKSTGGKAPRKQ (A Rme2s T Kac Q T A Rme2s K S T G G K A P R K Q)	0.00363
ARTKQTARKSTGGKAPRKQ (A R T Kme3 Q T A Rme2s Kme1 S T G G K A P R K Q)	0.00471
A[Arg(Me2s)]T[Lys(Me)]QTA[Arg(Me2a)][Lys(Me2)]STGGKAPRKQ	0.00471
ARTKQTARKSTGGKAPRKQ (A R T K Q T A Rme2a Kme2 S pT G G K A P R K Q)	0.00435
ARTKQTARKSTGGKAPRKQ (A Rme2a T Kme3 Q T A Rme2s Kme3 S T G G K A P R K Q)	0.00508
A[Arg(Me2s)]T[Lys(Me2)]QTA[Arg(Me2a)][Kac]STGGKAPRKQ	0.0402
ARTKQTARKSTGGKAPRKQ (A R T Kme3 Q T A Rme2s Kac S T G G K A P R K Q)	0.0286
ARTKQTARKSTGGKAPRKQ (A Rme2a T Kme2 Q T A Rme2a Kme3 S T G G K A P R K Q)	0.00254
AR(me2s)TK(Ac)QTAR(me2a)K(me2)STGGKAPRKQ (reading uncertain)	0.00979
AR(me2a)TK(Me)QTARKSTGGKAPRKQ (reading uncertain)	0.0029
A[Arg(Me2s)]T[Lys(Me2)]QTAR[Lys(Me)]STGGKAPRKQ	0.00544
ARTKQTARKSTGGKAPRKQ (A R T Kac Q T A Rme2s Kme1 S T G G K A P R K Q)	0.00508
ARTKQTARKSTGGKAPRKQ (A R T Kme1 Q T A Rme2a Kac S T G G K A P R K Q)	0.0257

Binder	binding score
ARTKQTARKSTGGKAPRKQ (A Rme2s T Kme2 Q T A Rme2a Kme3 S T G G K A P R K Q)	0.00508
ARTKQTARKSTGGKAPRKQ (A R T K Q T A Rme2a K S pT G G K A P R K Q)	0.00399
A[Arg(Me2a)]T[Lys(Me3)]QTAR[Kac]STGGKAPRKQ	0.0344
ARTKQTARKSTGGKAPRKQ (A R T Kme1 Q T A Rme2s Kme2 S T G G K A P R K Q)	0.00471
ARTKQTARKSTGGKAPRKQ (A R T K Q T A R Kme2 S T G G Kac A P R K Q)	0.0315
ARTKQTARKSTGGKAPRKQ (A Rme2s T Kme1 Q T A Rme2s K S T G G K A P R K Q)	0.00326
ARTK(me2)QTAR(me2s)K(me3)STGGKAPRKQ	0.0029
ARTKQTARKSTGGKAPRKQ (A Rme2a T Kac Q T A Rme2s Kac S T G G K A P R K Q)	0.0334
A[Arg(Me2s)]T[Lys(Me3)]QTA[Arg(Me2a)][Lys(Me3)]STGGKAPRKQ	0.00363
ARTKQTARKSTGGK(Ac)APRKQ	0.0319
AR(Me2s)TK(Me3)QTAR(Me2s)K(Me3)STGGKAPRKQ	0.00653
ARTKQTARKSTGGKAPRKQ (A Rme2a T Kme2 Q T A Rme2a K S T G G K A P R K Q)	0.00508
A[Arg(Me2a)]TK(Ac)QTA[Arg(Me2a)][Lys(Me3)]STGGKAPRKQ	0.00834
ARTKQTARKSTGGKAPRKQ (A Rme2s T Kme2 Q T A R Kme3 S T G G K A P R K Q)	0.00145
ARTK(Me2)QTAR(Me2a)K(Me3)STGGKAPRKQ (reading uncertain)	0.00181
ARTKQTARKSTGGKAPRKQ (A Rme2a T Kme2 Q T A R Kac S T G G K A P R K Q)	0.0337
ARTKQTARKSTGGKAPRKQ (A R T Kme1 Q T A Rme2s Kac S T G G K A P R K Q)	0.0305
AR(Me2a)TK(Me2)QTAR(Me2s)K(Me3)STGGKAPRKQ (reading uncertain)	0.00145
ARTKQTARKSTGGKAPRKQ (A Rme2a T Kme2 Q T A Rme2a Kac S T G G K A P R K Q)	0.0395
ARTKQTARKSTGGKAPRKQ (A Rme2s T Kme3 Q T A R Kme3 S T G G K A P R K Q)	0.00254
A[Arg(Me2a)]T[Lys(Me)]QTA[Arg(Me2a)][Lys(Me2)]STGGKAPRKQ	0.0029

Binder	binding score
ARTK(Ac)QTAR(me2s)K(Ac)STGGKAPRKQ	0.0729
ARTK(Me)QTAR(Me2a)K(Me2)STGGKAPRKQ (reading uncertain)	0.0138
AR(Me2s)TK(Me3)QTAR(Me2s)K(Ac)STGGKAPRKQ	0.017
AR(me2s)TK(me2)QTAR(me2s)K(me3)STGGKAPRKQ	0.00218
ARTKQTARKSTGGKAPRKQ (A R T K Q T A Rme2a Kme2 S T G G K A P R K Q)	0.0029
ARTKQTARKSTGGKAPRKQ (A Rme2s T Kme3 Q T A Rme2s K S T G G K A P R K Q)	0.0029
ARTKQTARKSTGGKAPRKQ (A R T K Q T A R Kme1 pS T G G K A P R K Q)	0.00181
ARTKQTARKSTGGKAPRKQ (A Rme2s T Kme3 Q T A Rme2a Kme2 S T G G K A P R K Q)	0.0029
ARTKQTARKSTGGKAPRKQ (A Rme2s T Kme2 Q T A Rme2s Kac S T G G K A P R K Q)	0.0239
ARTKQTARKSTGGKAPRKQ (A R T K Q T A Rme2a Kac pS pT G G K A P R K Q)	0.00616
ARTKQTARKSTGGKAPRKQ (A Rme2a T Kme3 Q T A Rme2a K S T G G K A P R K Q)	0.00363
ARTKQTARKSTGGKAPRKQ (A Rme2a T Kme1 Q T A Rme2a Kme3 S T G G K A P R K Q)	0.00435
AR(Me2a)[pT]KQTARKSTGGKAPRKQ (reading uncertain)	0.00181
ARTK(me2)QTAR(me2s)K(Me)STGGKAPRKQ	0.00544
ARTKQTARKSTGGKAPRKQ (A Rme2s T Kme1 Q T A Rme2a Kac S T G G K A P R K Q)	0.0381
ARTKQTARKSTGGKAPRKQ (A R T K Q T A R Kac S pT G G K A P R K Q)	0.00544
ARTKQTARKSTGGKAPRKQ (A R T Kme2 Q T A Rme2s Kme2 S T G G K A P R K Q)	0.00218
ARTKQTARKSTGGKAPRKQ (A Rme2s T Kme1 Q T A Rme2s Kme1 S T G G K A P R K Q)	0.00326
ARTKQTARKSTGGKAPRKQ (A R T Kme3 Q T A Rme2a Kme1 S T G G K A P R K Q)	0.00435
